Values quoted from earlier work in PMC4596410.

Target: Lys115 (UniProt position 115, LSAYPKKLGYP)

Acetoacetate decarboxylase (not stated in the article (Clostridium acetobutylicum inferred))
pKa: 6
